ChEMBL document CHEMBL1250451, “Mechanistic insights into a Ca2+-dependent family of alpha-mannosidases in a human gut symbiont” (Nat Chem Biol, 2010)

What was measured:
Type in all cases: protein assay
[1] = substrate: OC[C@H]1O[C@H](O[C@H]2[C@@H](O)[C@H](O)[C@@H](CO)O[C@@H]2O)[C@@H](O)[C@@H](O)[C@@H]1O; experiment: (§1) Ratio of Kcat to Km for Bacteroides thetaiotaomicron GH92 alpha-mannosidase 3990 Q602A mutant assessed as as mannose release after 16 hrs by HPLC relative to wild type enzyme
[2] = substrate: O=[N+]([O-])c1ccc(O[C@H]2O[C@H](CO)[C@@H](O)[C@H](O)[C@@H]2O)c([N+](=O)[O-])c1; experiment: as §1
[3] = substrate: O=[N+]([O-])c1ccc(O[C@H]2O[C@H](CO)[C@@H](O)[C@H](O)[C@@H]2O)cc1; experiment: as §1
[4] = substrate: OC[C@H]1O[C@H](O[C@H]2[C@@H](O)[C@H](O)[C@@H](CO)O[C@@H]2O)[C@@H](O)[C@@H](O)[C@@H]1O; experiment: (§2) Activity of Bacteroides thetaiotaomicron GH92 alpha-mannosidase 3990 Q602A mutant assessed as as mannose release after 16 hrs by HPLC relative to wild type enzyme
[5] = substrate: O=[N+]([O-])c1ccc(O[C@H]2O[C@H](CO)[C@@H](O)[C@H](O)[C@@H]2O)cc1; experiment: as §2
[6] = substrate: OC[C@H]1O[C@H](O[C@H]2[C@@H](O)[C@H](O)[C@@H](CO)O[C@@H]2O)[C@@H](O)[C@@H](O)[C@@H]1O; experiment: (§3) Activity of Bacteroides thetaiotaomicron GH92 alpha-mannosidase 2199 E537A mutant assessed as as mannose release after 16 hrs by HPLC relative to wild type enzyme
[7] = substrate: O=[N+]([O-])c1ccc(O[C@H]2O[C@H](CO)[C@@H](O)[C@H](O)[C@@H]2O)cc1; experiment: as §3
[8] = substrate: OC[C@H]1O[C@H](O[C@H]2[C@@H](O)[C@H](O)[C@@H](CO)O[C@@H]2O)[C@@H](O)[C@@H](O)[C@@H]1O; experiment: (§4) Ratio of Kcat to Km for Bacteroides thetaiotaomicron GH92 alpha-mannosidase 2199 E537A mutant assessed as as mannose release after 16 hrs by HPLC relative to wild type enzyme
[9] = substrate: O=[N+]([O-])c1ccc(O[C@H]2O[C@H](CO)[C@@H](O)[C@H](O)[C@@H]2O)cc1; experiment: as §4
[10] = substrate: OC[C@H]1O[C@H](O[C@H]2[C@@H](O)[C@H](O)[C@@H](CO)O[C@@H]2O)[C@@H](O)[C@@H](O)[C@@H]1O; experiment: (§5) Activity of Bacteroides thetaiotaomicron GH92 alpha-mannosidase 2199 E537Q mutant assessed as as mannose release after 16 hrs by HPLC relative to wild type enzyme
[11] = substrate: O=[N+]([O-])c1ccc(O[C@H]2O[C@H](CO)[C@@H](O)[C@H](O)[C@@H]2O)cc1; experiment: as §5
[12] = substrate: OC[C@H]1O[C@H](O[C@H]2[C@@H](O)[C@H](O)[C@@H](CO)O[C@@H]2O)[C@@H](O)[C@@H](O)[C@@H]1O; experiment: (§6) Ratio of Kcat to Km for Bacteroides thetaiotaomicron GH92 alpha-mannosidase 2199 E537Q mutant assessed as as mannose release after 16 hrs by HPLC relative to wild type enzyme
[13] = substrate: O=[N+]([O-])c1ccc(O[C@H]2O[C@H](CO)[C@@H](O)[C@H](O)[C@@H]2O)cc1; experiment: as §6

B1: Alpha-1,2-mannosidase (BT_3990) (Bacteroides thetaiotaomicron), Q8A0N1 Q602A (protein)
chain: MKRLLLIACILNCTLLSQAKDWTQYVNPLMGSQSTFELSTGNTYPAIARPWGMNFWTPQTGKMGDGWQYTYTANKIRGFKQTHQPSPWINDYGQFSIMPIVGQPVFDEEKRASWFAHKGEVATPYYYKVYLAEHDIVTEMTPTERAVLFRFTFPENDHSYVVVDAFDKGSYIKIIPEENKIIGYTTRNSGGVPENFKNYFIIEFDKPFTYKATVENGNLQENVAEQTTDHAGAIIGFKTRKGEQVNARIASSFISFEQAAANMNELGKDNIEQLAQKGKDAWNQVLGKIEVEGGNLDQYRTFYSCLYRSLLFPRKFYELDANGQPIHYSPYNGQVLPGYMFTDTGFWDTFRCLFPLLNLMYPSVNKEMQEGLINTYLESGFFPEWASPGHRGCMVGNNSASILVDAYMKGVKVDDIKTLYEGLIHGTENVHPEVSSTGRLGYEYYNKLGYVPYDVKINENAARTLEYAYDDWCIYRLAKELKRPKKEISLFAKRAMNYKNLFDKESKLMRGRNEDGTFQSPFSPLKWGDAFTEGNSWHYTWSVFHDPQGLIDLMGGKEMFVTMMDSVFAVPPIFDDSYYGQVIHEIREMTVMNMGNYAHGNAPIQHMIYLYDYAGQPWKAQYWLRQVMDRMYTPGPDGYCGDEDNGQTSAWYVFSALGFYPVCPGTDEYVMGTPLFKKATLHFENGNSLVIDAPNNSTENFYIDSMSFNGADHTKNYLRHEDLFKGGTIKVDMSNRPNLNRGTKEEDMPYSFSKE
Question: Which kcat/Km [1] does the source give for B1 here?
Answer: The kcat/Km was 383 M⁻¹ s⁻¹.

Question: And the kcat/Km [2]?
Answer: The kcat/Km was 20 M⁻¹ s⁻¹.

Question: And the kcat/Km [3]?
Answer: The kcat/Km was 0.35 M⁻¹ s⁻¹.

Question: What about the Km [4] of the same protein?
Answer: Its Km is 16 mM.

Question: And the kcat [4]?
Answer: The kcat was 6 s⁻¹.

Question: And the Km [5]?
Answer: The Km was 6.6 mM.

Question: What about the kcat [5] of the same protein?
Answer: Its kcat is 0.00233 s⁻¹.

B2: Alpha-1,2-mannosidase (BT_2199) (Bacteroides thetaiotaomicron), Q8A5N9 E537A (protein)
chain: MVTRLFFLSICFPFLLTSCQQSKKTVEFVDYVNPLMGTESTFAFSHGNTYPAVAVPWGMNFWSPQTGENGSGWMYTYTDSLMRGFRQTHQPSPWINDYGTFSIMPLAGELKMSHKERLVPFSHQQEKATPYNYSVTFNNGLQTSLSATSRGAVFEVSFPEKEDQYVVVDAYNGGSSITIEPEKRLVKGATRYNNGGVPDNFANYFMMEFSHPVIEYGTYNGDTLLHHQTDVAADYTCAYLKFDVPAGEKLTIRTASSFISPEQAAINFNREVADADVQLISGKAREQWNNYLGRVEAEGGTDEQLRTFYSCLYRTLLFPREFYEFDSQGNPVYYSPYDGNVHDGYMYTDNGFWDTFRAVHPLFTLLYPEVSERVTQSIINAYNESGFMPEWASPGHRGCMIGNNSVSLLVDAWMKGIQTVDAEKALEAMIHQTQARHAEIASVGRDGFEYYDKLGYVPYPEVPEATAKTLEYAYADWCIARFAESLGKQDIADQYYQKAPNYRNLYYPEHGFMWTKDAKGNWRDRFDATEWGGPFTAGSSWHWTWSVFHDPEGLSELMGGHEPMIARLDSMFVAPNTYNYGTYGFVIHEIAEMVALNMGQYAHGNQPVQHAIYLYDYIGQPWKTQYHLRNVMDKLYNSGSKGYCGDEDNGQTSAWYVFSAMGFYPVCPGMPEYAIGSPLFKKVTLHLPEGKNFVVSAADNAADRPYIRKALLNGQEFTRNYLTHDELKQGGELNLSMDSVPNQQRGTQPADFPYSYSK
Question: Which Km [6] does the source give for B2 here?
Answer: The Km was 0.874 mM.

Question: What about the kcat [6] of the same protein?
Answer: Its kcat is 0.00045 s⁻¹.

Question: And the Km [7]?
Answer: Its Km is “Not Active”.

Question: What about the kcat [7] of the same protein?
Answer: The kcat was “Not Active”.

Question: What about the kcat/Km [8] of the same protein?
Answer: The kcat/Km was 0.517 M⁻¹ s⁻¹.

Question: What about the kcat/Km [9] of the same protein?
Answer: Its kcat/Km is 0.383 M⁻¹ s⁻¹.

B3: Alpha-1,2-mannosidase (BT_2199) (Bacteroides thetaiotaomicron), Q8A5N9 E537Q (protein)
chain: MVTRLFFLSICFPFLLTSCQQSKKTVEFVDYVNPLMGTESTFAFSHGNTYPAVAVPWGMNFWSPQTGENGSGWMYTYTDSLMRGFRQTHQPSPWINDYGTFSIMPLAGELKMSHKERLVPFSHQQEKATPYNYSVTFNNGLQTSLSATSRGAVFEVSFPEKEDQYVVVDAYNGGSSITIEPEKRLVKGATRYNNGGVPDNFANYFMMEFSHPVIEYGTYNGDTLLHHQTDVAADYTCAYLKFDVPAGEKLTIRTASSFISPEQAAINFNREVADADVQLISGKAREQWNNYLGRVEAEGGTDEQLRTFYSCLYRTLLFPREFYEFDSQGNPVYYSPYDGNVHDGYMYTDNGFWDTFRAVHPLFTLLYPEVSERVTQSIINAYNESGFMPEWASPGHRGCMIGNNSVSLLVDAWMKGIQTVDAEKALEAMIHQTQARHAEIASVGRDGFEYYDKLGYVPYPEVPEATAKTLEYAYADWCIARFAESLGKQDIADQYYQKAPNYRNLYYPEHGFMWTKDAKGNWRDRFDATEWGGPFTQGSSWHWTWSVFHDPEGLSELMGGHEPMIARLDSMFVAPNTYNYGTYGFVIHEIAEMVALNMGQYAHGNQPVQHAIYLYDYIGQPWKTQYHLRNVMDKLYNSGSKGYCGDEDNGQTSAWYVFSAMGFYPVCPGMPEYAIGSPLFKKVTLHLPEGKNFVVSAADNAADRPYIRKALLNGQEFTRNYLTHDELKQGGELNLSMDSVPNQQRGTQPADFPYSYSK
Question: What does the source list for B3?
Answer: Km [10]: 0.571 mM; kcat [10]: 0.000433 s⁻¹; Km [11]: 3.1 mM; kcat [11]: 0.06 s⁻¹; kcat/Km [12]: 0.767 M⁻¹ s⁻¹; kcat/Km [13]: 19.5 M⁻¹ s⁻¹
